Test system: Bacillus subtilis
Test: cleaved RNA product abundance (RNA/gDNA barcode ratio) relative to median wild-type variant (ratio to wild type); higher = more accumulation of the downstream cleavage product
Conditions: experiment (reporter, strain, medium): exp 8a: truncated aprE reporter, strain BJT201 with 2% xylose (RNase J1 expressed); cleavage site: glnRA (positions -5 to +31 mutated)
Method in brief: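 Cleaved product abundance was measured with barcoded reporter mRNAs (truncated aprE or tetM) carrying mutagenized RNase Y cleavage-site windows in the B. subtilis chromosome. Cultures in LB at 37°C grew from OD600 0.0003 to 0.3. Gel-selected cleaved RNA was reverse transcribed and barcode-sequenced with genomic DNA barcodes, and the RNA:gDNA barcode ratio per construct was scaled to the median construct bearing the unmutated site.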

Row | Sequence | cleaved RNA product abundance
1 | CGACATGTCCCGCTTCTTTCATTAATCCGTTAGAAACTGTTTTGCTATATACTTTTACCTTTTAAGAGGAGGAAT | 0.217
2 | CGACATGTCCCGCTTCTTTCATTAATCCGTTAGAAACTGTTTTGCTATATATATTTACCTTTTAAGAGGAGGAAT | 0.272
3 | CGACATGTCCCGCTTCTTTCATTAATCCGTTAGAAACTGTTTTGCTATATTCATTTACCTTTTAAGAGGAGGAAT | 0.268
4 | CGACATGTCCCGCTTCTTTCATTAATCCGTTAGAAACTGTTTTGCTATTTACATTTACCTTTTAAGAGGAGGAAT | 0.127
5 | CGACATGTCCCGCTTCTTTCATTAATCCGTTAGAAACTGTTTTGCTGTATACATTCATCTTTTAAGAGGAGGAAT | 0.0887
6 | CGACATGTCCCGCTTCTTTCATTAATCCGTTAGAAACTGTTTTGCTGTATACATTTACCTTTTAAGAGGAGGAAT | 0.085
7 | CGACATGTCCCGCTTCTTTCATTAATCCGTTAGAAACTGTTTTGGTATATACATTTACCTTTTAAGAGGAGGAAT | 0.104
8 | CGACATGTCCCGCTTCTTTCATTAATCCGTTAGAAACTGTTTTTCTATATACATTTACCTTTTAAGAGGAGGAAT | 0.511
9 | CGACATGTCCCGCTTCTTTCATTAATCCGTTAGAAACTTTTTTGCTATATACATTTACCTTTTAAGAGGAGGAAT | 0.287
10 | CGACATGTCCCGCTTCTTTCATTAATCCGTTAGAAAGTGTTTTGCTATATACATTTACCTTTTAAGAGGAGGAAT | 0.368
11 | CGACATGTCCCGCTTCTTTCATTAATCCGTTAGAAATTGTTTTGCTATATACATTTACCTTTTAAGAGGAGGAAT | 0.342
12 | CGACATGTCCCGCTTCTTTCATTAATCCGTTAGAACCTGTTTTGCTATATACATTTACCTTTTAAGAGGAGGAAT | 0.229
13 | CGACATGTCCCGCTTCTTTCATTAATCCGTTAGAAGCTGTTTTGCTATATACATTTACCTTTTAAGAGGAGGAAT | 0.23
14 | CGACATGTCCCGCTTCTTTCATTAATCCGTTAGAATCTGTTTTGCTATATACATTTACCTTTTAAGAGGAGGAAT | 0.239
15 | CGACATGTCCCGCTTCTTTCATTAATCCGTTAGATACTGTTTTGCTATATACATTTACCTTTTAAGAGGAGGAAT | 0.273
16 | CGACATGTCCCGCTTCTTTCATTAATCCGTTAGCAAATATTTTGCTATATACATTTACCTTTTAAGAGGAGGAAT | 0.843
17 | CGACATGTCCCGCTTCTTTCATTAATCCGTTAGCAAATGATTTGCTATATACATTTACCTTTTAAGAGGAGGAAT | 1.28
18 | CGACATGTCCCGCTTCTTTCATTAATCCGTTAGCAAATGGTTTGCTATATACATTTACCTTTTAAGAGGAGGAAT | 0.732
19 | CGACATGTCCCGCTTCTTTCATTAATCCGTTAGCAAATGTTATGCTATATACATTTACCTTTTAAGAGGAGGAAT | 0.766
20 | CGACATGTCCCGCTTCTTTCATTAATCCGTTAGCAAATGTTTAGCTATATACATTTACCTTTTAAGAGGAGGAAT | 0.503
21 | CGACATGTCCCGCTTCTTTCATTAATCCGTTAGCAAATGTTTGGCTATATACATTTACCTTTTAAGAGGAGGAAT | 0.43
22 | CGACATGTCCCGCTTCTTTCATTAATCCGTTAGCAAATGTTTTACTATATACATTTACCTTTTAAGAGGAGGAAT | 0.73

Row | Sequence | cleaved RNA product abundance
23 | CGACATGTCCCGCTTCTTTCATTAATCCGTTAGCAAATGTTTTCCTATATACACTTACCTTTTAAGAGGAGGAAT | 0.377
24 | CGACATGTCCCGCTTCTTTCATTAATCCGTTAGCAAATGTTTTGATATATACATTTACCTTTTAAGAGGAGGAAT | 0.418
25 | CGACATGTCCCGCTTCTTTCATTAATCCGTTAGCAAATGTTTTGCAATATACATTTACCTTTTAAGAGGAGGAAT | 0.304
26 | CGACATGTCCCGCTTCTTTCATTAATCCGTTAGCAAATGTTTTGCTACATACATTTACCTTTTAAGAGGAGGAAT | 0.354
27 | CGACATGTCCCGCTTCTTTCATTAATCCGTTAGCAAATGTTTTGCTATAAACATTTACCTTTTAAGAGGAGGAAT | 0.584
28 | CGACATGTCCCGCTTCTTTCATTAATCCGTTAGCAAATGTTTTGCTATACACATTTACCTTTTAAGAGGAGGAAT | 0.444
29 | CGACATGTCCCGCTTCTTTCATTAATCCGTTAGCAAATGTTTTGCTATATAAATTTACCTTTTAAGAGGAGGAAT | 0.499
30 | CGACATGTCCCGCTTCTTTCATTAATCCGTTAGCAAATGTTTTGCTATATACAATTACCTTTTAAGAGGAGGAAT | 1.76
31 | CGACATGTCCCGCTTCTTTCATTAATCCGTTAGCAAATGTTTTGCTATATACATTAACCTTTTAAGAGGAGGAAT | 1.13
32 | CGACATGTCCCGCTTCTTTCATTAATCCGTTAGCAAATGTTTTGCTATATACATTCACCTTTTAAGAGGAGGAAT | 1.09
33 | CGACATGTCCCGCTTCTTTCATTAATCCGTTAGCAAATGTTTTGCTATATACATTTAAATTTTAAGAGGAGGAAT | 0.806
34 | CGACATGTCCCGCTTCTTTCATTAATCCGTTAGCAAATGTTTTGCTATATACATTTAACTTTTAAGAGGAGGAAT | 1.03
35 | CGACATGTCCCGCTTCTTTCATTAATCCGTTAGCAAATGTTTTGCTATATACATTTACATTTTAAGAGGAGGAAT | 1.23
36 | CGACATGTCCCGCTTCTTTCATTAATCCGTTAGCAAATGTTTTGCTATATACATTTACCATTTAAGAGGAGGAAT | 1.4
37 | CGACATGTCCCGCTTCTTTCATTAATCCGTTAGCAAATGTTTTGCTATATACATTTACCCTTTAAGAGGAGGAAT | 0.852
38 | CGACATGTCCCGCTTCTTTCATTAATCCGTTAGCAAATGTTTTGCTATATACATTTACCTTTTAAGAGGAGGAAT | 1.17
39 | CGACATGTCCCGCTTCTTTCATTAATCCGTTAGCAAATGTTTTGCTATATACATTTACTTTTTAAGAGGAGGAAT | 1.2
40 | CGACATGTCCCGCTTCTTTCATTAATCCGTTAGCAAATGTTTTGCTATATACATTTTCCTTTTAAGAGGAGGAAT | 0.6
41 | CGACATGTCCCGCTTCTTTCATTAATCCGTTAGCAAATGTTTTGCTATATACTTTTACCTTTTAAGAGGAGGAAT | 1.13
42 | CGACATGTCCCGCTTCTTTCATTAATCCGTTAGCAAATGTTTTGCTTTATACATTTACCTTTTAAGAGGAGGAAT | 0.298
43 | CGACATGTCCCGCTTCTTTCATTAATCCGTTAGCAAATGTTTTGTTATATACATTTACCTTTTAAGAGGAGGAAT | 0.554
44 | CGACATGTCCCGCTTCTTTCATTAATCCGTTAGCAAATGTTTTTCTATATACATTTACCTTTTAAGAGGAGGAAT | 0.753

Row | Sequence | cleaved RNA product abundance
45 | CGACATGTCCCGCTTCTTTCATTAATCCGTTAGCAAATTTTTTGCTATATACATTTACCTTTTAAGAGGAGGAAT | 1.19
46 | CGACATGTCCCGCTTCTTTCATTAATCCGTTAGCAACAATTTTGCTATATACATTTACCTTTTAAGAGGAGGAAT | 1.04
47 | CGACATGTCCCGCTTCTTTCATTAATCCGTTAGCAACAGATTTGCTATATACATTTACCTTTTAAGAGGAGGAAT | 0.68
48 | CGACATGTCCCGCTTCTTTCATTAATCCGTTAGCAACAGGTTTGCTATATACATTTACCTTTTAAGAGGAGGAAT | 0.389
49 | CGACATGTCCCGCTTCTTTCATTAATCCGTTAGCAACAGTTTTACTATATACATTTACCTTTTAAGAGGAGGAAT | 0.561
50 | CGACATGTCCCGCTTCTTTCATTAATCCGTTAGCAACAGTTTTGATATATACATTTACCTTTTAAGAGGAGGAAT | 0.429
51 | CGACATGTCCCGCTTCTTTCATTAATCCGTTAGCAACAGTTTTGCTATACACATTTACCTTTTAAGAGGAGGAAT | 0.557
52 | CGACATGTCCCGCTTCTTTCATTAATCCGTTAGCAACAGTTTTGCTATATAAATTTACCTTTTAAGAGGAGGAAT | 0.69
53 | CGACATGTCCCGCTTCTTTCATTAATCCGTTAGCAACAGTTTTGCTATATACAATTACCTTTTAAGAGGAGGAAT | 0.601
54 | CGACATGTCCCGCTTCTTTCATTAATCCGTTAGCAACAGTTTTGCTATATACATATACCTTTTAAGAGGAGGAAT | 1.16
55 | CGACATGTCCCGCTTCTTTCATTAATCCGTTAGCAACAGTTTTGCTATATACATTTAACTTTTAAGAGGAGGAAT | 0.916
56 | CGACATGTCCCGCTTCTTTCATTAATCCGTTAGCAACAGTTTTGCTATATACATTTACCATTTAAGAGGAGGAAT | 0.522
57 | CGACATGTCCCGCTTCTTTCATTAATCCGTTAGCAACAGTTTTGCTATATACATTTACCTTTTAAGAGGAGGAAT | 0.814
58 | CGACATGTCCCGCTTCTTTCATTAATCCGTTAGCAACAGTTTTGCTATATACATTTACGTTTTAAGAGGAGGAAT | 2.01
59 | CGACATGTCCCGCTTCTTTCATTAATCCGTTAGCAACAGTTTTGCTATATACATTTACTTTTTAAGAGGAGGAAT | 1.18
60 | CGACATGTCCCGCTTCTTTCATTAATCCGTTAGCAACAGTTTTGCTATATACATTTAGCTTTTAAGAGGAGGAAT | 0.489
61 | CGACATGTCCCGCTTCTTTCATTAATCCGTTAGCAACAGTTTTGCTATATACATTTTCCTTTTAAGAGGAGGAAT | 0.423
62 | CGACATGTCCCGCTTCTTTCATTAATCCGTTAGCAACAGTTTTGCTATATATATTTACCTTTTAAGAGGAGGAAT | 0.588
63 | CGACATGTCCCGCTTCTTTCATTAATCCGTTAGCAACAGTTTTTCTATATACATTTACCTTTTAAGAGGAGGAAT | 0.345
64 | CGACATGTCCCGCTTCTTTCATTAATCCGTTAGCAACATTTTTGCTATATACATTTACCTTTTAAGAGGAGGAAT | 1.12
65 | CGACATGTCCCGCTTCTTTCATTAATCCGTTAGCAACCCTTTTGCTATATACATTTACCTTTTAAGAGGAGGAAT | 0.451
66 | CGACATGTCCCGCTTCTTTCATTAATCCGTTAGCAACCGTGTTACTATATAAATTTACCTTTTAAGAGGAGGAAT | 0.271

Source: the supplement of paper PMC11780869
